The nature of series [1]: Peptide self-aggregation by light scattering. The conditions noted are these: 80 μM, 37° C., after 1 hr of incubation. The series is classed as physicochemical. The procedure: To further probe for self-aggregation, G16, LG3, and CG3 were incubated at 80 μM at 37° C. and analyzed by light scattering.
In series [2] the target is T1, Aβ (1-40) (Homo sapiens, UniProt P05067).
T1 construct: Aβ (1-40) was purchased from Anaspec, Inc. (Fremont, Calif.) as lyophilized powder; purchased Anaspec, Inc. (Fremont, Calif.)
The series can be described thus: Nanoparticle tracking (NTA) of Aβ aggregates. The settings on record: 28 μM Aβ, 10:1 Aβ:peptide molar ratio. Type of series: biochemical. Here is the method: (§1) Aβ (1-40) was purchased from Anaspec, Inc. (Fremont, Calif.) as lyophilized powder. For dynamic light scattering, ThT fluorescence assay, TEM, NTA measurement and filtration/sedimentation assay, Aβ was dissolved in 50% ACN, re-lyophilized, and reconstituted in 8M urea at 12 mg/mL. Aβ stock was then aliquoted, snap-frozen in ethanol with dry ice, and stored at −80° C. For PICUP and proteolytic fragmentation analysis, lyophilized Aβ was dissolved in prechilled hexafluoroisopropanol (HFIP, Acros Organics, Geel, Belgium), aliquoted, dried and stored at −20° C. as previously described (Cho et al., 2014). Aβ sample was prepared right before use by dissolving dried peptides in 50 mM NaOH and diluting into phosphate-buffered saline (PBSA) (10 mM Na2HPO4/NaH2PO4, 150 mM NaCL and 0.02% NaN3 (pH 7.4)) to 30 μM as previously described (Cho et al., 2014).
NTA measurements were taken with a Nanosight LM10 (Nanosight, Amesbury, U.K.) equipped with a 405 nm laser as previously described (Yang et al., 2013). Aβ alone (28 μM) or with CG3 (2.8 μM) were prepared in PBSA and incubated for 5 hr at 37° C. Three 60 s video were taken for each sample.

In series [3] the target is T1, Aβ (1-40). The series can be described thus: Filtration/sedimentation assay of Aβ aggregation. Type of series: biochemical. Here is the method: as §1
Aβ alone (30 μM) or with CG3 (3 μM) was prepared in PBSA and incubated for 24 hr at 37° C. For filtration, 175 μL of sample was filtered through 0.45 μm filter. For sedimentation, 100 μL of sample was transferred onto a separate tube and centrifuged for 30 min at 19,500 ref. The supernatant (80%) was removed. Concentrations of untreated, filtered, and centrifuged samples were measured by BCA assay (Pierce).

The test system of series [4] is primary cortical neuronal cells. The series can be described thus: In vitro cellular toxicity of Aβ (1-42), MTS assay. Type of series: cell-based, mice. The settings on record: 10 μM peptide, 10 μM Aβ. The procedure:
Aβ toxicity was assessed as described in detail previously (Yang et al., 2013; Cho et al., 2014). Briefly, the primary cortical neuronal cells were cultured from embryonic 15.5 day mice and were maintained in neurobasal media till they are matured. Aβ (1-42) (American Peptide, Sunnyvale, Calif.) at 1 mg/mL in PBS was diluted to 10 μM without or with peptides as previously described (Cho et al., 2014). At 6 days in vitro (DIV), the cells were treated with either Aβ alone or Aβ incubated with different doses of mTTR and peptides. Appropriate vehicle and controls were run along with the treatments. At 8 DIV, the neurons were incubated with MTS reagent (Promega) as per manufacturer protocol for 2-3 hrs and absorbance was measured at 490 nm.

For series [5], the target named is T1, Aβ (1-40). The series can be described thus: Dynamic light scattering of Aβ aggregate growth. Type of series: biochemical. The conditions noted are these: 140 μM Aβ. Here is the method:
as §1
Aβ stock in 8M urea prepared as stated above was thawed and sonicated for 2 min before being diluted into PBSA. Aβ alone (140 μM) or mixed with peptides (14 μM) was filtered through […] filter directly into a light scattering cuvette and placed into a bath of the index-matching solvent decahydronaphthalene with temperature controlled to 37° C. Light scattering data were collected using a Brookhaven BI-200SM system (Brookhaven Instruments Corp., Holtsville, N.Y.) and an Innova 90C-5 argon laser (Coherent, Santa Clara, Calif.) operating at 488 nm and 150 mW. The average scattering intensity at 90° was measured over 10 hr and data were normalized to the total mass concentration. The z-averaged hydrodynamic diameter was determined from the autocorrelation function using the method of cummulants.

Series [6] has as its target T1, Aβ (1-40). The series can be described thus: Photoinduced cross-linking (PICUP) of Aβ and peptides. Type of series: binding. The procedure:
as §1
Aβ prepared with HFIP/NaOH treatment at 30 μM as described was mixed with peptides to a final concentration of 24 μM Aβ and 2.4 μM peptides. Aβ stock was used immediately (freshly prepared) or after incubation for 24 hr at 37° C. (1 day pre-aggregated). Samples of Aβ with and without peptides were incubated for 1 hr at 37° C. and cross-linked by photo-induced cross-linking method as previously described (Cho et al., 2014). Cross-linked samples were then separated on a 10-20% Tris-Tricine gradient gel (Iinvotrogen, Carlsbad, Calif.), transferred onto a 0.2 μm poly(vinylidene difluoride) (PVDF) membrane and detected by monoclonal mouse anti-Aβ antibody 4G8 (Covance, Princeton, N.J.) as previously described (Cho et al., 2014).

For series [7], the target named is T1, Aβ (1-40). The series can be described thus: Proteolytic fragmentation assay of Aβ with peptides (Proteinase K). The settings on record: 3:1 molar excess of peptides, detection by 4G8. Type of series: binding. The procedure: as §1
The proteolytic fragmentation assay of Aβ with peptides was performed as previously described in detail (Cho et al., 2014). Briefly, Aβ alone (20 μM) or with peptide (60 μM) was incubated for 24 hr at 37° C. Proteinase K (Promega, Madison, Wis.) was added to the samples at a final concentration of 0.5 μg/mL and samples were dotted onto a 0.45 μm nitrocellulose membrane (Pierce) after incubation for 0, 5, 10, 20, 30, 40, 50, 60, 90 and 120 min. Membranes were then reacted with monoclonal antibodies against Aβ (6E10, Covance, against Aβ (3-8) and 4G8 against Aβ (18-22)) and visualized.

Series [8] is described as follows: Peptide self-association by PICUP cross-linking and gel electrophoresis. The conditions noted are these: PICUP cross-linking, gel electrophoresis. Type of series: physicochemical. Here is the method:
Peptides were also cross-linked by PICUP and analyzed for self-association. Twenty microliters of peptides at 36 μM in PBSA was incubated for 1 hr at 37° C. and cross-linked. Cross-linked samples were then heated at 95° C. for 5 min and separated on a 10-20% Tris-Tricine gradient gel. Peptides were visualized by silver staining (SilverStain Kit, Pierce, Rockford, Ill.).

Entries after “also recorded” stand apart in the source; their conditions may differ. Where no end group is shown, it is not given here. [ ]: non-standard residue; d: D form.

Turning to “SKVVT^DPPRYTIAALLSPYSYSQ [CG3] (chain 1 SKVVT[dP]PRYTIAALLSPYSYSQ; chain 2 SKVVT[dP]PRYTIAALLSPYSYSQ; also: head-to-tail to a chain's N/C-terminus) [cyclic 22-mer of TTR residues 104-123 grafted onto DPro-Pro template]”, in series [1], the “light scattering of peptide alone” value is “scattered light above background” and the “scattering intensity relative to G16” value was “about 5 times”. Besides, in the series with Aβ (1-40) [2], the “size of particles detected” value is on record as “very large (microns)”. Further, in the series with Aβ (1-40) [3], the “effect on fraction of Aβ aggregates removable by filtration or sedimentation” value is “reduce the fraction of Aβ aggregates that can be removed by filtration or sedimentation”. Also, in the series with Aβ (1-40) [3] (30 μM Aβ, 10:1 Aβ excess, at either 0 or 24 hours, 37° C.), the “fraction of Aβ-peptide mixture filterable through 0.45 μm filter” value is “about 90%”. For the same substance, in the series with Aβ (1-40) [3] (after 24 hours, centrifuged 30 min, supernatant), the “fraction of Aβ-peptide mixture remaining in solution after centrifugation” value came to 91%. The “protection against Aβ toxicity” value in series [4] is listed as “significant protection”. For the same substance, in the series with Aβ (1-40) [5] (14 μM peptide), the “effect on Aβ aggregation (hydrodynamic diameter, total scattered intensity)” value is given as “increased the size of aggregates of Aβ” and the “intensity of scattered light of Aβ-peptide mixture” value is recorded as “enhanced the intensity of scattered light similarly”. In addition, the “mean hydrodynamic size of Aβ-peptide mixture” value with Aβ (1-40) [5] (after 5 hr, 10:1 molar excess of Aβ, 37° C.) is 1000 nm. For the same substance, the “interaction with freshly prepared versus pre-aggregated Aβ” value in the series with Aβ (1-40) [6] (freshly prepared or 1 day pre-aggregated Aβ) is reported as “much less interaction with freshly prepared Aβ than with pre-aggregated Aβ”. The “interaction with Aβ (shift in cross-linked Aβ size distribution)” value with Aβ (1-40) [6] (pre-aggregated Aβ, 10:1 molar excess of Aβ, Western blot 4G8) is reported as “interact with Aβ”. Besides, in the series with Aβ (1-40) [7], the “effect on Aβ degradation by protease” value was “Aβ degradation was delayed; also recorded: most effective in inhibiting degradation”. In series [8], the “self-association by PICUP” value was “a fraction of CG3 forms a SDS-stable dimer”.
